Key:
recombinant human VEGFR2 [1] = molecular target: T1, recombinant human VEGFR2 (human, UniProt P35968 20-764); assay: SPR
T1 chain: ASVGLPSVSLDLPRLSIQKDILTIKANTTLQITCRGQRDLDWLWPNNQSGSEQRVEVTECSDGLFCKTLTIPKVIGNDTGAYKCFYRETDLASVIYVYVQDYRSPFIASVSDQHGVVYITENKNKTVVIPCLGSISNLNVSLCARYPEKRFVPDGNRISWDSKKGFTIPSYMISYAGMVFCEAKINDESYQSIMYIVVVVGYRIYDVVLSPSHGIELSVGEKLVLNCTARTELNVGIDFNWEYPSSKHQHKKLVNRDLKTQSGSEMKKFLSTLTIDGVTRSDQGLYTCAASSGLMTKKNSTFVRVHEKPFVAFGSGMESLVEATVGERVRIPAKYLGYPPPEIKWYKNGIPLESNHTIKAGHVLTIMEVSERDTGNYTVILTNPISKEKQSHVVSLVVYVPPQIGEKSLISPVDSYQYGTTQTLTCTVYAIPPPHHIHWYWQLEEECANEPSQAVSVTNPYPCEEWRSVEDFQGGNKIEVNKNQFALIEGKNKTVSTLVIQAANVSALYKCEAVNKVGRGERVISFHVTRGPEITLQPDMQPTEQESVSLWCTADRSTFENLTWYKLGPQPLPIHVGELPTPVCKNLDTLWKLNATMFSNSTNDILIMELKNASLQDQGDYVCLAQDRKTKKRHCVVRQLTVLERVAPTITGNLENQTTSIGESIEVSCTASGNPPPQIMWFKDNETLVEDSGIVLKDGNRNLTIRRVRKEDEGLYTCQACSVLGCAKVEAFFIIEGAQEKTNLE

recombinant human VEGFR2 [2] = molecular target: T1, recombinant human VEGFR2; assay: SPR

B1: ramucirumab (Cyramza) (antibody, V domains shown)
VH: EVQLVQSGGGLVKPGGSLRLSCAASGFTFSSYSMNWVRQAPGKGLEWVSSISSSSSYIYYADSVKGRFTISRDNAKNSLYLQMNSLRAEDTAVYYCARVTDAFDIWGQGTMVTVSS
VL: DIQMTQSPSSVSASIGDRVTITCRASQGIDNWLGWYQQKPGKAPKLLIYDASNLDTGVPSRFSGSGSGTYFTLTISSLQAEDFAVYFCQQAKAFPPTFGGGTKVDIK
Q: Which results are given for B1?
A: koff (recombinant human VEGFR2 [1]): 0.000102 s⁻¹; Kd (recombinant human VEGFR2 [2]): 0.949 nM

Source: PMC7957537 (2021)
